These are literature values, as cited in article PMC4771075.

Broadly, the Ki is a dissociation constant, usually derived from enzyme kinetics or from competition with a known ligand.

This data set concerns the target kappa opioid receptor (Rattus norvegicus) (UniProt P34975). Put plainly: radioligand.

Sequence of kappa opioid receptor (Rattus norvegicus) (P34975 whole entry): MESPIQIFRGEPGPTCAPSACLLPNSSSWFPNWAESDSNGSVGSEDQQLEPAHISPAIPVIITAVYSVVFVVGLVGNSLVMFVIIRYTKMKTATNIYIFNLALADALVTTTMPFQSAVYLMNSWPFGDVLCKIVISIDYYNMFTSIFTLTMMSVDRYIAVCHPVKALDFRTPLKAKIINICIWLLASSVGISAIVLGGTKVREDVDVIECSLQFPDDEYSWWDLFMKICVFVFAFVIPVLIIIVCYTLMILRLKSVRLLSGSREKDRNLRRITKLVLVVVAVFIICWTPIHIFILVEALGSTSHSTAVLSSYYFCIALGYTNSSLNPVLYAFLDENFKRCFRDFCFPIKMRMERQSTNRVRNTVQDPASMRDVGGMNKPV

With “Dyn A(1-11)NH2 1-11 (from UniProt P01213)”, the Ki is 0.57 nM.
